Drawing on a protein production outcome set (Wang et al. 2014), this text covers protein production for 17 sequences.
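Note: failed if final PepcDB status was selected cloned or expressed and not failed if soluble or beyond.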

The nature of this data set: label from the status in PepcDB records.
As for “MRHVSNGDPVRVVIVTDGAYGAPAESGDYAQTRRRESTRAAAILGYGAPEFWNLPDRGLEYGERLIQRVLTAMEDHAAELVYAPSWWEVHPDHRVLALAATEAVRRCTRPLRLAMYEVGVPLQPNALLDITDLAERKASAVACFSSQLAQQDYDEQIASLNRFRTYTLPRTVRAAEGYLVLAAEELRNRIPRMMTQKDRLAVRGETGDTAATPLVSVIIPSMDGPRLKEALDSVALQTYPRIEAVVIDAKGEGHTPLPRWCGRFPLRFIPSDISLSRGRAADVGLEHAEGDYLVFLGEDDVFQPGDVASLVAEAARKQGTGLCSHADRRMTVFSGGVVDGSPRTGKPGKPAFLPLHAVLFDRSLAELRCRFDGDANVPEDGDFWDQAMQHVASIHPGACRHGHGLPGGEAGRHTIVRLPPWTSPAPLPPGASLARTPHPTERDSLRRRIQRAGRRIYETPPRGLTDALVRTAYRIWARLSSDSMITNDGKGTLEHHHHHH”, the protein production result is recorded as “failed”.

In the case of “MRIEPRPLPETLPDLGDLPPLLARLYAARGVRCAEELDKGLARLIPYQRLKGIEEGVALLVDALEGGQRILIVGDFDADGATASSVGVLALRMLGAAWVDYLVPNRFEYGYGLTPEIVGVALEKRPDLLVTVDNGISSVDGVQAAKAAGLKVLVTDHHLPGPELPAADAIINPNQPGCEFPSKA”, the protein production entry is “failed”.

In the case of “MRIGVIMGGVSSEKQVSIMTGNEMIANLDKNKYEIVPITLNEKMDLIEKAKDIDFALLALHGKYGEDGTVQGTLESLGIPYSGSNMLSSGICMDKNISKKILRYEGIETPDWIELTKMEDLNFDELDKLGFPLVVKPNSGGSSVGVKIVYDKDELISMLETVFEWDSEVVIEKYIKGEEITCSIFDGKQLPIISIRHAAEFFDYNAKYDDASTIEEVIELPAELKERVNKASLACYKALKCSVYARVDMMVKDGIPYVMEVNTLPGMTQASLLPKSADAAGIHYSKLLDMIIETSLRVRKEEGF”, the protein production result is reported as “not failed”.

As for “MRILFVGPPLYGLLYPVLSLAQAFRVNGHEVLIASGGKFAQKAAEAGLVVFDAAPGFDSEAGYRRQEALRKENNIGTKMGNFSFFSEEMTDPLVAFAGQWRPDLIVYPPLGVVGPLIAAKYDIPVVMQTVGFGHTPWHIKGVTKSLSNAYRRHGVSAPPRDLAWIDVTPPSMSILQNDGEPVISMQYVPYNGGAVWEEWWERTPDRKRLLVSLGTVKPMVDGLDLISWVMDSAGEVDAEIILHLPANARSDLRSLPPNVRLVDWLPMGVFLNGADGFIHHGGAGNTLTALHAGIPQIVFGQGADRPVNARAVVERGCGIIPGKSGLTSSMINTFLGNRALREASQEVAAEMAAQPCPTEVAKKLIAMLQHGLEHHHHHH”, the protein production entry is “failed”.

Consider “MRILSGMRPTGKLHIGHLVGALENWVKLQEEGNECFYFVADWHALTTHYDDVSKLKEYTRDLVRGFLACGIDPEKSVIFVQSGVKEHAELALLFSMIVSVSRLERVPTYKEIKSELNYKDLSTAGFLIYPVLQAADILIYKAEGVPVGEDQVYHIELTREIARRFNYLYDEVFPEPEAILSRVPKLPGTDGRKMSKSYGNIINLEISEKELEQTILRMMTDPARVRRSDPGNPENCPVWKYHQAFDISEEESKWVWEGCTTASIGCVDCKKLLLKNMKRKLAPIWENFRKIDEDPHYVDDVIMEGTKKAREVAAKTMEEVRRAMNLMF”, for which the protein production result is on record as “not failed”.

As for “MRIPHHLSRSPTGRWSFVQRVPVDLQTVMGCRLIKRTLQTKDLAQAHVRAVVLGAGYARLFAQLTDQRVDKLSKTDADLLIARLTSAENLQDLTLNRTRQPDGTVTEQWQIDSPKDLKLYRQLMELEAMAGAALQARAHPVAVPTMFGSTHAGPSRQSSAPAIETMTLGKARDAFLATLKGSTLPKTYTIKKTAIEALVSFLGPTMKVHAITRSDLARWYQDMREKGASTPTLTNKQSYIGGRGGFFEWAMASGHYPKGDNPASGHVSYSQREKRARKKLGFKAYDRAQIQALFAPEALAKLSESARWASFLGLYTGARASEVGQLLVKDVFEEDGIPCIRISDEGEHQKVKTEVSLRTVPLHPELLKMGFLEWVGGKRKVGETRLFPAAKATAVNGQGNWITKAFSRHLAEVGKNWEPAKRGFHSLRKTLIQELQGAGVVSELRAQIVGHELDDEHHSTYGRDFTVVEKLRGLGPHSPGISRLSFFQ”, the protein production result was “failed”.

Turning to “MRIRFSRCASPRGKSSTGVIVPVCSAIYSIRRFWRWNKMKISVVIPTFNRCHLLAEAINSALDQASSELEVEAVIVDDESDDGTAAWLETAFAGEHRVRVLVNGRGKRPAGARNTGILAARHPKVGVIFSRARYEQDETEVPYMDPNFECKLCYASIATEDKDAVVFDRSYFGHLLKYSCYFNLSAVVMTADAARQLMSESLHIAEDFKFWVRLSHEQIFACLKVPQIRYRSHSANIPFKADKDPAGNTPSMLHTYRLMLGYPGLARSNREQLRKHMAKEYFDWAYRCSRKGRLAEALRLRLALFDLLWKNVVACVKLPWIGLRYRADRVGSTEQ”, the protein production result is given as “failed”.

Regarding “MRIVGLTGGIASGKSTVSNLFKASGIPVVDADVVARDVLKKGSGGWKRVVAAFGEEILLPSGEVDRPKLGQIVFSSDSKRQLLNKLMAPYISSGIFWEILKQWASGAKVIVVDIPLLFEVKMDKWTKPIVVVWVSQETQLKRLMERDGLSEEDARNRVMAQMPLDSKRSKADVVIDNNGSLDDLHQQFEKVLIEIRRPLTWIEFWRSRQGAFSVLGSVILGLSVCKQLKIGS”, the protein production result is on record as “failed”.

For the sequence “MRIYRTLTTYIARTYLTALVGATLVVGALLMLFDVIEITRRSGSKAIGIDVVLEMALYHLPMSLQSALPFVFMGGAVMIFWKLARSSELVVIRAAGLSVWQFLAPVIAVVVVLGIANVTLLNPLAAHLYTKYERMDAGMDSGVANPLALSDGGLWLRENNPEGQVVMHAQGVRQVDNALRMTGVTIFRYGPDRRFESRIDAETAGLREGALVLTSVVTTYPGRVGERAETLEVPSNLTLPKIQDSFSPPETVSFWELPAFITFFEAAGFSAHAHRLHWHSLIASPLLLIAMVLMGAVFSLKPSQRSVNWLFRIVGAVAAGFGVFFFSKITYTLGLSQTLPVNLAAWSPALVTTMVALAALFHLEDG”, the protein production result is listed as “failed”.

With “MRKDETSNTSPDISVAQPASALRYHLRPPRRNDGAAIHQLVSECPPLDLNSLYAYLLLCEHHAHTCVVAESPGGRIDGFVSAYLLPTRPDVLFVWQVAVHSRARGHRLGRAMLGHILERQECRHVRHLETTVGPDNQASRRTFAGLAGERGAHVSEQPFFDRQAFGGADHDDEMLLRIGPFTHPPH”, the protein production entry was “not failed”.

As for “MRKDILYMLLLLLITDLSIIADIPVLRQSLPFIFFTIIPGYLLLGILKFKVELIDGSVIAAALSIFLMMMTGLIINSFYPLIMRPLSLLPILSAINLLIIALMVIYHLRGEEPLNLKASGNLSTALSSLLFPVLTVIGSYLMNKYSVNTVLLLVLLFIPVYIILLEVFKKKIGPATYPVAIFSISLSLLIMNGLPSNYLIGRDIHWEFYLFRKALMAHHWDMHVGSYNAYNACLSVTVLPVIYKVLLNVPEVYIFKFYYGFIGALMPLPVYLISERILKRSDYGFYATLLFIFQFSFIYILGWCRQLVALLFFAAAVMVLTGDMRRSHKKLLFVVFMVGTVLSHYTTAYVFFFLVALIPILVRVMKRLKVPDDSRGFFAASLAVLFFVVVFAWYAQATGAPFKSAVSFFTKTLRSMSEFFSADMRNNSELAVVGIGISNFPNLLSTLVHDTVFALIGAGALAVIFKEEYRQGREYLAAVILCMGILVAFIALPFVSKGYGGPRLFTQLLVILAPLFITGIDALTGFIGRVRWRIPSIIVLLILLFSCTTYLNYHFAGIPYSYAYDDGGERRYETFIYDNEVTGALWLSNHYNETSVIHGDKMIYSRIIYGFSTYPRVDREFFNGTDTETGGYVYLTHFNLYQRLVFLDYPLAPPRVVNGALKLDNVESINNYKDLIVNMSTIYDNGGSRVLIVA”, the protein production result is “failed”.

With “MRKDWGDGPGGLGTAMQDKILLIEDSVALSMLLRTRLSDETEAEVVHCASMAEADALMQANNFTLALTGLNLPDAPKGEILTLLSERKVPAIVFTATVDEEARKRYAEKKIIDYIVKDGHRTVDAVVKTVDRIMTNKRFSVLVVDDARTARSGLVEILERQNFKVSEAHSGNRALEILSQDPSIQLVITDYHMPDMDGYELTRRIRDSRSSEDLRVIGISSSTDRLLSASFLKAGASDFVYRPFVPEELQCRIDNNIETLKQLKRLRELAERDHLTGLPNRRSFFERTRALMDVINDNDESGAVAILDIDHFKKINDTLGHDAGDRALKKLAELLQGMCDEQRHIPARLGGEEFAVFLRGLDARAAYAFCEELREQVEKNGRQLSGSSLALTISLGVVEIEKGEPFDNQLNAADQLLYLAKANGRNRVYSDIMIQEGLQKIGLNG”, the protein production result was “failed”.

Regarding “MRKIQFPFCILDVIQRKGVRVLYIIIPIVVLLLIFLFAGYVKAPPNKAAIITGLSKNPRVLLGKSGFKVPFFERVDWLEVGQININVVTEDYIPTKDFINIKVDAIAQVAMEVSNNQVSAVAMRNFLNRKADDVRSMITESLQGNLREIIGTMDLKSICQDKAKFSQEVKQNAEQDMKELGIRILSFNVQNVNDKDGLIDDLGIDNRETIRKTARVAKANADRDVEVASAEAANKASEAKVAAELAIAQRNNDLEIRKAELKIGEDTKKAEADAAYEIQKQTSRKTVEIREQEADIARREKEIELQTKEAEVAEKKLDAEIRKKAEADKYAEMQNADAELYRRQKDAEAQQYEAEKEAAAIRAKGLAEAEAIRQKGLAEAEALDKKAEAMKKYGQAAILEMIVGVLPDIAKSVAEPLSAIDKVTVIGGNSDGVSDLAGNVPIIMGKVMESVKEATGIDMNEIIRAETFEGKTTKNINFTGLDQVGEEIAQGAAQSVSETLQETE”, the protein production result is given as “failed”.

As for “MRKKEENLNTASGLRIAMILLGIAVTPVLLSSSSLGNQLSSSSLISVVLLGGVILTLLSAITISVGEKARLPTYGIVKYSFGEKGAIAINILMAISLFGWIAVTANMFGHSVHDLLAQHGLEVPLALLVAAGCVIFVASTAFGFTVLGKIAQVAVPVIALVLCYILYVATHTEVAVPAAIVEMNTGVAVSTVVGTIIVLVATLPDFGSFVHNRKHALIAAGVTFLVAYPLLYWAGATPSAISGQGSLLGAMAVFGAVLPAALLLIFACVTGNAGNMFQGTLVVSTLLTRFPKWQITVALGILSAIVGSMDIMAWFIPFLLFLGIATPPVAGIYIADFFLYRRNGYQESVLAQESQIKVLTFAAWIIGAAVGFMTVKGLFTLTTIPSVDSILVACIAYAILSRASQHR”, the protein production entry is on record as “failed”.

Regarding “MRKSDREAFLSSVLGNEQPPAHLARTVIEEKLRNAIIDGSLPSGTALRQQELATLFGVSRMPVREALRQLEAQSLLRVETHKGAVVAPLITEDAVDAYALRILLESEALRLSIPLLDADDLAAAASYIEQLEVETDFGQIGRLNRMFHLSLYAKTHNKRLMRLVEEGLNEEERFLRFNLSSMGLGKLSQDDHWQLLRLAEQKAVEPCVEALQYHLNRGVQAVTQYLQSQKAGNVKPARTKKNTPA”, the protein production entry is on record as “not failed”.

Regarding “MRKSKLTFIATFLILLFLSMPYKAHAASQTPITRADAEQRALTMINLNWTYSKSKNGVLPSAYSGSITAPSQFRGIENVVATGIPYCWGGFDGLNSSSYGESWTNFTDAVNKGAFVGNVKSSSYGHITGTAGLDCSGFVQATFNIKDYKLSTSTIFNQYFTKIDIKDIKHMDILNLPGNHVVIFDKWGTRNGVNGAYTYEATPDTTYGGIQGTKQYFMSMNTVSQYIPGRYVNIKEVAYVQVINASSLNIRTGPSTSYPIIGTISQNQIAEVTGYSSDGTWYKIKINGIEGYASSTYLTYVNNLEHHHHHH”, the protein production entry is on record as “failed”.

In the case of “MRKTWPLLTLLLCTCASAQLRADIAHNTPPGQATMQVYDGEKVLFQATTPGLNAVTASKFSPDGRWLLNIADGSGYVQLWDTAKGERVKTFLSVYFRIFGADFTPDSERLLLDFSGSKERADPRRPAYFPSPSLWNLATLERISFVYNDKRESFYNGKVTFSQDGERMAFVRPNAYSSGPASVWNAKTGAYIATISRLPYPKGAAQTGGAGAMDARLSPDGQRVLVRYVDNRLAEYDASTGTLLKVRGKFSAADAGAELERFAREGR”, the protein production result is “failed”.
